In patent US20090298765A1 (Takeda / Millennium, published 2009):
Like-named read-outs stand apart in the source and are kept apart here. Starred links: 1 amine or outer side, 2 acyl side, 3 side chain; linkers in the order of their positions; H or OH if unused. Non-standard residues stand in square brackets, D forms with d. No end group written: not given here. *: point of attachment. Propanoyl(3-indol-3-yl) = O=C(CCc1c[nH]c2ccccc12)*; Phe(F5) = N[C@@H](Cc1c(F)c(F)c(F)c(F)c1F)C(=O)O; Tyr(Me) = COc1ccc(C[C@H](N[*:1])C(=O)[*:2])cc1; Propanoyl(3-(3-pyridyl)) = O=C(CCc1cccnc1)*; Phe(4-NH2) = Nc1ccc(C[C@H](N)C(=O)O)cc1; Arg(Me) = CNC(=N)NCCC[C@H](N)C(=O)O; Fmoc = O=C(OCC1c2ccccc2-c2ccccc21)*; 4Pal = N[C@@H](Cc1ccncc1)C(=O)O; d4Pal = N[C@H](Cc1ccncc1)C(=O)O; Cha = N[C@@H](CC1CCCCC1)C(=O)O; azaGly = NNC(=O)O

B1: des(1)-[D-Tyr2,D-Pya(4)3,AzaGly7,Arg(Me)9]MS10 (peptide)
peptide: [dY][d4Pal]NSF[azaGly]L[Arg(Me)]F-NH2
modifications: N-terminus assumed
SMILES: CNC(=N)NCCC[C@H](NC(=O)[C@H](CC(C)C)NC(=O)NNC(=O)[C@H](Cc1ccccc1)NC(=O)[C@H](CO)NC(=O)[C@H](CC(N)=O)NC(=O)[C@@H](Cc1ccncc1)NC(=O)[C@H](N)Cc1ccc(O)cc1)C(=O)N[C@@H](Cc1ccccc1)C(N)=O
notes: also called Compound No. 305; KiSS1-305
B2: des(1-3)-3-(3-Indolyl)propionyl-MS10 (peptide)
peptide: {Propanoyl(3-indol-3-yl)}-NSFGLRF-NH2
SMILES: CC(C)C[C@H](NC(=O)CNC(=O)[C@H](Cc1ccccc1)NC(=O)[C@H](CO)NC(=O)[C@H](CC(N)=O)NC(=O)CCc1c[nH]c2ccccc12)C(=O)N[C@@H](CCCNC(=N)N)C(=O)N[C@@H](Cc1ccccc1)C(N)=O
notes: also called Compound No. 114
B3: des(1-3)-3-(3-Pyridyl)propionyl-[AzaGly7,Arg(Me)9]MS10 (peptide)
peptide: {Propanoyl(3-(3-pyridyl))}-NSF[azaGly]L[Arg(Me)]F-NH2
SMILES: CNC(=N)NCCC[C@H](NC(=O)[C@H](CC(C)C)NC(=O)NNC(=O)[C@H](Cc1ccccc1)NC(=O)[C@H](CO)NC(=O)[C@H](CC(N)=O)NC(=O)CCc1cccnc1)C(=O)N[C@@H](Cc1ccccc1)C(N)=O
notes: also called Compound No. 322
B4: [D-Tyr1,Cha3,Arg(Me)9]MS10 (peptide)
peptide: [dY]N[Cha]NSFGL[Arg(Me)]F-NH2
modifications: N-terminus assumed
SMILES: CNC(=N)NCCC[C@H](NC(=O)[C@H](CC(C)C)NC(=O)CNC(=O)[C@H](Cc1ccccc1)NC(=O)[C@H](CO)NC(=O)[C@H](CC(N)=O)NC(=O)[C@H](CC1CCCCC1)NC(=O)[C@H](CC(N)=O)NC(=O)[C@H](N)Cc1ccc(O)cc1)C(=O)N[C@@H](Cc1ccccc1)C(N)=O
notes: also called Compound No. 171
B5: des(1-2)-Fmoc-MS10 (peptide)
peptide: Fmoc-WNSFGLRF-NH2
SMILES: CC(C)C[C@H](NC(=O)CNC(=O)[C@H](Cc1ccccc1)NC(=O)[C@H](CO)NC(=O)[C@H](CC(N)=O)NC(=O)[C@H](Cc1c[nH]c2ccccc12)NC(=O)OCC1c2ccccc2-c2ccccc21)C(=O)N[C@@H](CCCNC(=N)N)C(=O)N[C@@H](Cc1ccccc1)C(N)=O
notes: also called Compound No. 54
B6: [D-Tyr1,Ala3,Arg(Me)9]MS10 (peptide)
peptide: [dY]NANSFGL[Arg(Me)]F-NH2
modifications: N-terminus assumed
SMILES: CNC(=N)NCCC[C@H](NC(=O)[C@H](CC(C)C)NC(=O)CNC(=O)[C@H](Cc1ccccc1)NC(=O)[C@H](CO)NC(=O)[C@H](CC(N)=O)NC(=O)[C@H](C)NC(=O)[C@H](CC(N)=O)NC(=O)[C@H](N)Cc1ccc(O)cc1)C(=O)N[C@@H](Cc1ccccc1)C(N)=O
notes: also called Compound No. 169
B7: [D-Tyr1,Ser3,Arg(Me)9]MS10 (peptide)
peptide: [dY]NSNSFGL[Arg(Me)]F-NH2
modifications: N-terminus assumed
SMILES: CNC(=N)NCCC[C@H](NC(=O)[C@H](CC(C)C)NC(=O)CNC(=O)[C@H](Cc1ccccc1)NC(=O)[C@H](CO)NC(=O)[C@H](CC(N)=O)NC(=O)[C@H](CO)NC(=O)[C@H](CC(N)=O)NC(=O)[C@H](N)Cc1ccc(O)cc1)C(=O)N[C@@H](Cc1ccccc1)C(N)=O
notes: also called Compound No. 170

How the values were obtained:
[1] = biological target: human OT7T175 (metastin receptor) (human) (UniProt Q969F8); experiment: competition with Cy-5 metastin (40-54) on hOT7T175-CHO cells, FMAT
[2] = biological target: human OT7T175 (metastin receptor) (human) (UniProt Q969F8); experiment: cell-based or functional assay
[3] = biological target: T1, human OT7T175 (metastin receptor) (human, UniProt Q969F8 1-398); experiment: cell-based or functional assay
[4] = biological target: T1, human OT7T175 (metastin receptor); experiment: cell-based or functional assay; remark: listed apart in the source
[5] = biological target: T1, human OT7T175 (metastin receptor); experiment: competition with Cy-5 metastin (40-54) on hOT7T175-CHO cells, FMAT
[6] = biological target: T1, human OT7T175 (metastin receptor); experiment: cell-based or functional assay; remark: listed apart in the source
[7] = biological target: T1, human OT7T175 (metastin receptor); experiment: cell-based or functional assay; remark: listed apart in the source
[8] = biological target: T1, human OT7T175 (metastin receptor); experiment: cell-based or functional assay; remark: listed apart in the source

Sequence of human OT7T175 (metastin receptor) (human) (Q969F8 whole entry L364H): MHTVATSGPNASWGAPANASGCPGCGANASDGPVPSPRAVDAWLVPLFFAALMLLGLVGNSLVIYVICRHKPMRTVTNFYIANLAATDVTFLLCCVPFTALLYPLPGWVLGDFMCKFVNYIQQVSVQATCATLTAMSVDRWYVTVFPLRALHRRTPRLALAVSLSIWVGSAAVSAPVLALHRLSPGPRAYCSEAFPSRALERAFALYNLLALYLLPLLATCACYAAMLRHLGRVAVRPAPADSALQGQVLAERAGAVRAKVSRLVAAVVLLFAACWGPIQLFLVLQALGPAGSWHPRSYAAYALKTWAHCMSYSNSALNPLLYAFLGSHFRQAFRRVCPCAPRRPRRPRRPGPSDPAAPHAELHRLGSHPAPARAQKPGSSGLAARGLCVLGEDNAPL
T1 sequence (Q969F8 whole entry L364H): as above

Molecule | IC50 [5] | Ca ion level-increasing activity (FLIPR, 40 s) [7] | Ca ion level-increasing activity (FLIPR) [8] | other results
[D-Tyr1,D-Asn2,D-Trp3,AzaGly7,Arg(Me)9]MS10 (peptide) |  |  |  | IC50 [1]: 49 nM; Ca ion level-increasing activity (FLIPR) (x Metastin (1-54)) [2]: 1
des(4-5)-MS10 (peptide) |  |  |  | Ca ion level-increasing activity (FLIPR) (x Metastin (1-54)) [3]: 1
[D-Tyr1,D-Asn2,D-Trp3,Arg(Me)9]MS10 (peptide) |  |  |  | Ca ion level-increasing activity (FLIPR) (x Metastin (1-54)) [2]: 1
des(4-5)-Boc-MS10 (peptide) |  |  |  | Ca ion level-increasing activity (FLIPR) (x Metastin (1-54)) [3]: 1
B1 | 1.3 nM | 2 EC50/MS10 EC50 |  | Ca ion level-increasing activity (FLIPR) [4]: 5 x Metastin (1-54); cell growth inhibition activity, IC50 [6]: 8.94 nM
B2 | 550 nM | 4.1 EC50/MS10 EC50 | 3 x Metastin (1-54) | 
YNWNSFGLRX (Cha10; C-terminal amide, also called Compound No. 112) [[Cha10]MS10] | 370 nM |  | 2 x Metastin (1-54) | 
B3 | 54 nM | 5.4 EC50/MS10 EC50 |  | Ca ion level-increasing activity (FLIPR) [4]: 1 x Metastin (1-54); cell growth inhibition activity, IC50 [6]: 71.9 nM
YNWNSFGLXF (Har9; C-terminal amide, also called Compound No. 97) [[Har9]MS10] | 370 nM | 2.9 EC50/MS10 EC50 | 10 x Metastin (1-54) | 
[dY][dN][4Pal]NSF[azaGly]L[Arg(Me)]F-NH2 (also called Compound No. 303) [[D-Tyr1,D-Asn2,Pya(4)3,AzaGly7,Arg(Me)9]MS10] | 0.5 nM | 6.9 EC50/MS10 EC50 |  | Ca ion level-increasing activity (FLIPR) [4]: 5 x Metastin (1-54); cell growth inhibition activity, IC50 [6]: 41.2 nM
YNWNSFGLR[Phe(4-NH2)]-NH2 (also called Compound No. 131) [[Phe(4NH2)10]MS10] | 120 nM |  | 3 x Metastin (1-54) | 
YNWNSFGLRX (Pya(4)10; C-terminal amide, also called Compound No. 17) [[Pya(4)10]MS10] | 0.0066 nM |  | 5 x Metastin (1-54) | 
YNWNSFGLRX (Nal(1)10; C-terminal amide, also called Compound No. 133) [[Nal(1)10]MS10] | 330 nM |  | 3 x Metastin (1-54) | 
YNWNSXGLRF (Nal(1)6; C-terminal amide, also called Compound No. 151) [[Nal(1)6]MS10] | 300 nM |  | 1 x Metastin (1-54) | 
B4 | 110 nM |  | 10 x Metastin (1-54) | 
B5 | 450 nM |  | 5 x Metastin (1-54) | 
YNWNSFGLRX (Nal(2)10; C-terminal amide, also called Compound No. 110) [[Nal(2)10]MS10] | 24 nM |  | 20 x Metastin (1-54) | 
YNWNSFGLR[Phe(F5)]-NH2 (also called Compound No. 111) [[Phe(F5)10]MS10] | 140 nM |  | 3 x Metastin (1-54) | 

Molecule | IC50 [5] | Ca ion level-increasing activity (FLIPR, 40 s) [7] | Ca ion level-increasing activity (FLIPR) [8] | other results
LPNYNWNSFGLRF-NH2 (also called Compound No. 32) [Leu-Pro-Asn-MS10] | 25 nM |  | 10 x Metastin (1-54) | 
YNWNSFALRF-NH2 (also called Compound No. 50) [[Ala7]MS10] | 190 nM |  | 30 x Metastin (1-54) | 
YNWNSFGLRY-NH2 (also called Compound No. 109) [[Tyr10]MS10] | 23 nM | 2.6 EC50/MS10 EC50 | 20 x Metastin (1-54) | 
YNWNSFSLRF-NH2 (also called Compound No. 101) [[Ser7]MS10] | 100 nM |  | 10 x Metastin (1-54) | 
YNWNLFGLRF-NH2 (also called Compound No. 24) [[Leu5]MS10] | 0.83 nM |  | 1 x Metastin (1-54) | 
YNWNSFGLR[Tyr(Me)]-NH2 (also called Compound No. 18) [[Tyr(Me)10]MS10] | 7.7 nM |  | 1 x Metastin (1-54) | 
DNWNSFGLRF-NH2 (also called Compound No. 75) [[Asp1]MS10] | 880 nM |  | 1 x Metastin (1-54) | 
B6 | 160 nM |  | 2 x Metastin (1-54) | 
B7 | 260 nM |  | 1 x Metastin (1-54) | 
YNWNSFGLRW-NH2 (also called Compound No. 134) [[Trp10]MS10] | 110 nM | 0.5 EC50/MS10 EC50 | 30 x Metastin (1-54) | 
[dY]NWNSFGLRF-NH2 [[D-Tyr1]MS10] |  | 1.6 EC50/MS10 EC50 | 30 x Metastin (1-54) | 
[dY]N[4Pal]NSF[azaGly]L[Arg(Me)]F-NH2 (also called Compound No. 286) [[D-Tyr1,Pya(4)3,AzaGly7,Arg(Me)9]MS10] | 17 nM |  |  | Ca ion level-increasing activity (FLIPR) [4]: 2 x Metastin (1-54); cell growth inhibition activity, IC50 [6]: 18.3 nM
[dY]NWNSFGL[Arg(Me)]F-NH2 [[D-Tyr1,Arg(Me)9]MS10] |  | 1.6 EC50/MS10 EC50 |  | cell growth inhibition activity, IC50 [6]: 87 nM
YN[dW]NSFGLRF-NH2 [[D-Trp3]MS10] |  | 1.6 EC50/MS10 EC50 | 30 x Metastin (1-54) | 
YN[dW]NSFGL[Arg(Me)]F-NH2 (also called Compound No. 143) [[D-Trp3,Arg(Me)9]MS10] | 7.7 nM |  | 3 x Metastin (1-54) | 
YNWNSXGLRF (Nal(2)6; C-terminal amide, also called Compound No. 152) [[Nal(2)6]MS10] | 180 nM | 1.4 EC50/MS10 EC50 | 5 x Metastin (1-54) | 
YNWNSXGLRF (Cha6; C-terminal amide, also called Compound No. 156) [[Cha6]MS10] | 49 nM | 0.9 EC50/MS10 EC50 | 2 x Metastin (1-54) | 
YNWNSFGXRF (Nle8; C-terminal amide, also called Compound No. 105) [[Nle8]MS10] | 880 nM |  | 1 x Metastin (1-54) | 
